Test results reported in US20140037626A1, “Metal Abstraction Peptide With Release of Metal” (Echogen, Inc., priority 2012, published 2014).
Ends that are not written are not given here.

Legend:
[1] = pH-dependent release of nickel from MAP peptides by absorption spectroscopy; assay type: physicochemical; details: FIG. 9; intensity at 415 nm with decreasing pH
Method: The loss of absorbance intensity corresponds to loss of metal from the complex, as the absorption features that are observed for Ni-MAP are due to ligand to metal charge transfer (LMCT) bands and d to d transitions. By monitoring the intensity of one specific peak (415 nm for the pentapteptide) with decreasing pH, the percent of the complex remaining at each pH unit was calculated and plotted (FIG. 9).
pH release experiments were then performed (FIG. 16), and release curves were prepared for each of the six peptides (FIG. 17).

[2] = pH-dependent release of platinum from MAP peptides (absorption, NMR, MS); assay type: physicochemical; details: low pH (pH 2.47 with excess ammonium chloride in FIG. 10)
Method: Because Pt is bound to ammonia and chloride ligands in the common inorganic complex cisplatin, the release experiment was also performed in the presence of excess ammonium chloride. […] Additionally, ^1H NMR of the GGNCC (SEQ ID NO.:1), and Pt-GGNCC (SEQ ID NO.:1) at low pH were all performed.
MS data was obtained at low pH when solvent (DMSO) was added to the peptide-metal complex before dropping the pH, to keep some of the species that result from metal release soluble. Although a small amount of a yellow precipitate formed, the peptide returned to the apo state and remained in solution as determined by MS (FIG. 12). By adding DMSO to the solution, a similar release experiment was performed using absorption spectroscopy. […] The loss of absorbance intensity corresponded to loss of metal from the complex. The loss of intensity was monitored at 315 nm, as this is a significant, yet unique, feature in the Pt-NCC spectral profile, and pH dependent release curve was prepared (FIG. 13).

| Substance | pH range in which pH-dependent release of nickel occurs rapidly [1] | precipitation of the Pt-peptide complex at low pH [2] |
| --- | --- | --- |
| GNNCC: nickel complex of the pentapeptide GNNCC (SEQ ID NO.:2) (cysteine pairing not given here; also: nickel complex) | 6-7 pH |  |
| Pt-GGNCC: platinum complex of the pentapeptide GGNCC (SEQ ID NO.:1) (cysteine pairing not given here; also: platinum complex) |  | Precipitation occurred |
